Experimental data published in patent US20090232762A1, “COMPOSITIONS FOR DELIVERY OF THERAPEUTIC AGENTS” (priority 2008, published 2009).

Legend:
Assay type in all cases: biochemical, S. cerevisiae
[1] = substrate: Nc1cc[nH]c(=O)n1; assay: Enzyme activity of yCD-His (substrate turnover); conditions: other: enzyme yCD-His, 10 uL of 4.52 ug/mL stock; average ±SE; 23.0 °C
Description: (§1) The S. cerevisiae yeast cytosine deaminase (yCD) enzyme was cloned and expressed. The resulting 474 bp gene was subcloned into pET-15b to facilitate purification of the protein via a fused histidine tag and transformed into competent BL21(DE3) cells for protein expression. An estimate of about 25-30 mg of pure yCD-His was collected from a 1-liter culture. Thrombin cleavage of the histidine tag on yCD-His was achieved by incubating the protein for 2 hours at 23° C. in thrombin cleavage buffer. Enzyme activity characteristics for yCD and yCD-His was investigated using both the prodrug 5FC and the enzyme's natural substrate, the DNA base cytosine. Five-FC turnover rates remained within 10^5 M^−1·s^−1 (Table 1) for both proteins (see E. Kievit et al. Cancer Res. 2000, 60:6649-6655). The diffusion controlled limit for extremely efficient enzymes and their substrates in solution is in the range 10^8-10^9 M^−1·s^−1, therefore it was concluded that yCD was a very efficient pretargeting enzyme for catalyzing 5FC to 5FU conversion, especially applicable to GDEPT.

[2] = substrate: Nc1nc(=O)[nH]cc1F; assay: Enzyme activity of yCD-His (substrate turnover); conditions: other: enzyme yCD-His, 10 uL of 4.52 ug/mL stock; average ±SE; 23.0 °C
Description: as §1

[3] = substrate: Nc1cc[nH]c(=O)n1; assay: Enzyme activity of yCD (His tag cleaved); conditions: other: enzyme yCD, 10 uL of 4.23 ug/mL stock; average ±SE; 23.0 °C
Description: as §1

[4] = substrate: Nc1nc(=O)[nH]cc1F; assay: Enzyme activity of yCD (His tag cleaved); conditions: other: enzyme yCD, 10 uL of 4.23 ug/mL stock; average ±SE; 23.0 °C
Description: as §1

B1: yCD-His (Saccharomyces cerevisiae S288C) (protein)
chain: MVTGGMASKWDQKGMDIAYEEAALGYKEGGVPIGGCLINNKDGSVLGRGHNMRFQKGSATLHGEISTLENCGRLEGKVYKDTTLYTTLSPCDMCTGAIIMYGIPRCVVGENVNFKSKGEKYLQTRGHEVVVVDDERCKKIMKQFIDERPQDWFEDIGE
notes: The resulting 474 bp gene was subcloned into pET-15b; made in house; host or cells: E. coli BL21(DE3)
Q: B1 was tested. Which Km [1] did it give?
A: 4040 ± 1120 µM

Q: What about the Km [2] of the same protein?
A: 1000 ± 240 µM

B2: yCD (Saccharomyces cerevisiae S288C) (protein)
chain: MVTGGMASKWDQKGMDIAYEEAALGYKEGGVPIGGCLINNKDGSVLGRGHNMRFQKGSATLHGEISTLENCGRLEGKVYKDTTLYTTLSPCDMCTGAIIMYGIPRCVVGENVNFKSKGEKYLQTRGHEVVVVDDERCKKIMKQFIDERPQDWFEDIGE
notes: The resulting 474 bp gene was subcloned into pET-15b; histidine tag (pET-15b) (N, cleaved yes); made in house; host or cells: E. coli BL21(DE3)
Q: Which results are given for B2?
A: Km [3]: 3750 ± 690 µM; Km [4]: 800 ± 180 µM
